{"source": "paper PMC6086726", "molecular_target": "Type I-F Csy surveillance complex of Pseudomonas aeruginosa PA14 (Csy1-4 with crRNA) (Pseudomonas aeruginosa PA14) (UniProt Q02ML9)", "assay": "SPR"}
{"substance": "AcrIF4 (gene 37 from phage JBD26) (natural protein)", "values": [{"measurement": "Kd", "result": 0.4, "unit": "µM"}]}
